Stoichiometry N data for one substance are collected here from article PMC6128908, “Potent PDZ-Domain PICK1 Inhibitors that Modulate Amyloid Beta-Mediated Synaptic Dysfunction” (Scientific Reports, 2018).

The target in this test is PICK1 PDZ domain with an additional C-terminal fusion (NKLQQSAV), oxidized, bCPA-treated dimer (UniProt Q9NRD5). The experiment in a line: crystal structure; dimeric bCPA-treated PICK1 PDZ with compound 1o; space group P3_(2), one disulfide bridged dimer per asymmetric unit; 1.69 Å.

With “PICK1 PDZ domain with an additional C-terminal fusion (NKLQQSAV), oxidized, bCPA-treated dimer (from UniProt Q9NRD5 1-105) (domain or fragment)”, the stoichiometry N came to 2.

A word on the stoichiometry N: it is the number of molecules, sites or subunits per partner or assembly.
